Experimental findings from publication PMC4505822 are described below.

This assay concerns the target insertion mutant recombinant human prion protein with five additional octapeptide repeats (human) (UniProt P04156). Put plainly: AFM height measurement with a calibration curve of marker proteins.

As usually defined, the stoichiometry N is the number of molecules, sites or subunits per partner or assembly. Consider “insertion mutant recombinant human prion protein with five additional octapeptide repeats (from UniProt P04156 23-231) (natural protein)”, for which the stoichiometry N lay in the range of 11 to 22 monomers.
